{"source": "paper PMC4871753", "origin": "cited, not measured here", "molecular_target": "RXFP1 (Homo sapiens) (UniProt Q9HBX9)", "sequence (Q9HBX9 whole entry)": "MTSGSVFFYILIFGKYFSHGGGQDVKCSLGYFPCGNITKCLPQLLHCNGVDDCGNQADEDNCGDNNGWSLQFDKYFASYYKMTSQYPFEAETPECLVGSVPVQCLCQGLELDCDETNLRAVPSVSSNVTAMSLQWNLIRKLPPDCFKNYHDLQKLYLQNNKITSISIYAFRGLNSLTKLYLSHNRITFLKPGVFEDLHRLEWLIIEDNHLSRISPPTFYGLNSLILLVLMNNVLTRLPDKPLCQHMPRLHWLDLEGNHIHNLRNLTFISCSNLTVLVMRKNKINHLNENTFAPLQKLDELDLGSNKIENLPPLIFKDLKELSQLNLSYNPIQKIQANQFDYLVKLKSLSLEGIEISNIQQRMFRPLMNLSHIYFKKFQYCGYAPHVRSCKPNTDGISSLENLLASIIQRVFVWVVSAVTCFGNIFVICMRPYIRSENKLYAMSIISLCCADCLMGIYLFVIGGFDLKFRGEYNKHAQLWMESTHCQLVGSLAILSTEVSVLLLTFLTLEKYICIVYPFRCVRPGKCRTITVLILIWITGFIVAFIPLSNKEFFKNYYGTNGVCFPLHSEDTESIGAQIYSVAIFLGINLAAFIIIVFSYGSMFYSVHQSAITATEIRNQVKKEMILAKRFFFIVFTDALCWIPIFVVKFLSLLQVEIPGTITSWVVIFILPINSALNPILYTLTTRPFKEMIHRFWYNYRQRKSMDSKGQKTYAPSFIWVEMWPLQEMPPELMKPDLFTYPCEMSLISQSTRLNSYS"}
{"substance": "NLuc-conjugated relaxin (from UniProt P04090)", "values": [{"measurement": "Kd", "value": 1.11, "unit": "nM"}]}
